Measured values as given in patent publication US20170183403A1.

Target: T1, Reference peptide no. 48
T1 sequence (peptide): PKLTRMLTFKFAMPK
Assay: peptide microarray (RepliTope), Ala mutagenesis set

Substance: NARA1 (antibody)
- signal intensity after subtraction of control signal: 6200 AU
